The target of assay [1] is T1, human GIP receptor (human), P48546.
T1 chain: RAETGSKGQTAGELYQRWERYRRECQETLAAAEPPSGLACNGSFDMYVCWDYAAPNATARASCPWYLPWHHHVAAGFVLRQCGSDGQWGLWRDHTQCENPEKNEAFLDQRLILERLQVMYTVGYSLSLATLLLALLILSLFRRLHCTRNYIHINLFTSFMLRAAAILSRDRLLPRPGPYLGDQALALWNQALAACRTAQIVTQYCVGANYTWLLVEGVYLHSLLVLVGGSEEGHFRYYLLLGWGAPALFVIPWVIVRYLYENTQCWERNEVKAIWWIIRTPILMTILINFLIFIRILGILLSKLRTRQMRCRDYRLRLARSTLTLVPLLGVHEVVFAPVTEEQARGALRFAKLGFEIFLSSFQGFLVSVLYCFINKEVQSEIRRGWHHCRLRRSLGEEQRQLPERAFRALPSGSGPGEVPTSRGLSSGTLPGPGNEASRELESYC
The experiment in a line: cell-based or functional assay.

Assay [2] concerns the target T2, human GLP-1 receptor (human), P43220.
T2 chain: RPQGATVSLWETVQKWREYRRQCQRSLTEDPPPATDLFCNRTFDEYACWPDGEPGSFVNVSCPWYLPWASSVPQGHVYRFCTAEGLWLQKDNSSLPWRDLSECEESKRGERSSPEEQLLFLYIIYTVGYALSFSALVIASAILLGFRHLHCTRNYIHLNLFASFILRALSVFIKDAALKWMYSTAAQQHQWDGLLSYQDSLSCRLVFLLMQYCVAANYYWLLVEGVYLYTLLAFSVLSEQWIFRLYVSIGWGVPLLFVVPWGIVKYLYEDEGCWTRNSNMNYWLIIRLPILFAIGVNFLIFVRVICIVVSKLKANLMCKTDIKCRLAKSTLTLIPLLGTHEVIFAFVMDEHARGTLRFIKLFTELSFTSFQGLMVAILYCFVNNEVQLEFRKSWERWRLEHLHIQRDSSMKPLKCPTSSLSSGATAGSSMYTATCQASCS
The experiment in a line: cell-based or functional assay.

Assay [3] addresses human glucagon receptor (human), P47871. The experiment in a line: cell-based or functional assay.
In assay [4] the target is T1, human GIP receptor (human), P48546. The experiment in a line: radioligand competition SPA, HEK293 membranes. For orientation: Loss of bound radioactivity is the signal in a displacement assay; it reports binding, not function.
Assay [5] has as its target T2, human GLP-1 receptor (human), P43220. The experiment in a line: radioligand competition SPA, HEK293 membranes.
The target in assay [6] is human glucagon receptor (human), P47871. The experiment in a line: radioligand competition SPA, HEK293 membranes.

What is called Ki is the dissociation constant of the complex between target and ligand, obtained from inhibition or displacement. A lower Ki goes with a stronger hold on the target.

*1 amine or outer side, *2 acyl side, *3 side chain or, on linkers, in order; H or OH if unused. Where no end group is shown, it is not given here. Side-chain parts run from the residue outwards. [ ]: non-standard residue; d: D form. The star is where a group is joined. C20 diacid = O=C(O)CCCCCCCCCCCCCCCCCCC(=O)*; γGlu = O=C(O)[C@H](CCC(=O)[*:2])N[*:1]; αMeL = CC(C)C[C@](C)(N)C(=O)O; AEEA = NCCOCCOCC(=O)O; Aib = CC(C)(N)C(=O)O

human glucagon receptor (human), P47871, sequence (P47871 26-477): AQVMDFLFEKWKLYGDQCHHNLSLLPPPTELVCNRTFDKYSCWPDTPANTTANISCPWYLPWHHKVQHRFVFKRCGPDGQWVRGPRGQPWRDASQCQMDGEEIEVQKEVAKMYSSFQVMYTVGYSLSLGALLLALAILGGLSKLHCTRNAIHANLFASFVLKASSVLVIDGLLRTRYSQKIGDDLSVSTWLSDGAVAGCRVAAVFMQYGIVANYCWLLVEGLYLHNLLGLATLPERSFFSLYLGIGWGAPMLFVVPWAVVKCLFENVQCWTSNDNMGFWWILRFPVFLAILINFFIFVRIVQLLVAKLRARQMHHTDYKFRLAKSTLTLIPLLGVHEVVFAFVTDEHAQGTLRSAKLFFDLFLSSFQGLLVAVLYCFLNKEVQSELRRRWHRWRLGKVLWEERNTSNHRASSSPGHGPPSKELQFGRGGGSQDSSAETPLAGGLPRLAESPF

Y[Aib]QGTFTSDYSI[αMeL]LDKK([AEEA-AEEA-γGlu-C20 diacid])AAQAFIEYLLEGGPSSGAPPPS-NH2 [Example 6]: the figures for the cAMP EC50 (0.1% casein) in assay [1], in assay [2] and in assay [3] were 0.274 nM, 0.142 nM and 0.0282 nM, respectively. In addition, the cAMP EC50 (FBS and BSA present) in assay [1] came to 7.41 nM; in assay [2], 21.2 nM; in assay [3] it was 1.99 nM. Besides, the Ki stood at 0.249 nM in assay [4], 36.7 nM in assay [5] and 0.835 nM in assay [6].

B1: Example 20 (peptide)
peptide: Y[Aib]QGTFTSDYSILLDKK([AEEA-γGlu-C20 diacid])AQ[Aib]AFIEYLLE[Aib]GPSSGAPPPS-NH2
modifications: N-terminus assumed
SMILES: CC[C@H](C)[C@H](NC(=O)[C@H](Cc1ccccc1)NC(=O)[C@H](C)NC(=O)C(C)(C)NC(=O)[C@H](CCC(N)=O)NC(=O)[C@H](C)NC(=O)[C@H](CCCCNC(=O)COCCOCCNC(=O)CC[C@H](NC(=O)CCCCCCCCCCCCCCCCCCC(=O)O)C(=O)O)NC(=O)[C@H](CCCCN)NC(=O)[C@H](CC(=O)O)NC(=O)[C@H](CC(C)C)NC(=O)[C@H](CC(C)C)NC(=O)[C@@H](NC(=O)[C@H](CO)NC(=O)[C@H](Cc1ccc(O)cc1)NC(=O)[C@H](CC(=O)O)NC(=O)[C@H](CO)NC(=O)[C@@H](NC(=O)[C@H](Cc1ccccc1)NC(=O)[C@@H](NC(=O)CNC(=O)[C@H](CCC(N)=O)NC(=O)C(C)(C)NC(=O)[C@@H](N)Cc1ccc(O)cc1)[C@@H](C)O)[C@@H](C)O)[C@@H](C)CC)C(=O)N[C@@H](CCC(=O)O)C(=O)N[C@@H](Cc1ccc(O)cc1)C(=O)N[C@@H](CC(C)C)C(=O)N[C@@H](CC(C)C)C(=O)N[C@@H](CCC(=O)O)C(=O)NC(C)(C)C(=O)NCC(=O)N1CCC[C@H]1C(=O)N[C@@H](CO)C(=O)N[C@@H](CO)C(=O)NCC(=O)N[C@@H](C)C(=O)N1CCC[C@H]1C(=O)N1CCC[C@H]1C(=O)N1CCC[C@H]1C(=O)N[C@@H](CO)C(N)=O
For B1, the results for the cAMP EC50 (0.1% casein) in assay [1], in assay [2] and in assay [3] were 0.0572 nM, 0.149 nM and 0.0641 nM, respectively. Moreover, the cAMP EC50 (FBS and BSA present) in assay [1] worked out at 3.7 nM; in assay [2], 20.6 nM; in assay [3], 3.97 nM. Besides, the Ki stood at 0.109 nM in assay [4], 9.23 nM in assay [5] and 3.76 nM in assay [6].

B2: Example 5 (peptide)
peptide: Y[Aib]QGTFTSDYSI[αMeL]LDKK([AEEA-AEEA-γGlu-C20 diacid])AAQAFIEYLLE[Aib]GPSSGAPPPS-NH2
modifications: N-terminus assumed
SMILES: CC[C@H](C)[C@H](NC(=O)[C@H](Cc1ccccc1)NC(=O)[C@H](C)NC(=O)[C@H](CCC(N)=O)NC(=O)[C@H](C)NC(=O)[C@H](C)NC(=O)[C@H](CCCCNC(=O)COCCOCCNC(=O)COCCOCCNC(=O)CC[C@H](NC(=O)CCCCCCCCCCCCCCCCCCC(=O)O)C(=O)O)NC(=O)[C@H](CCCCN)NC(=O)[C@H](CC(=O)O)NC(=O)[C@H](CC(C)C)NC(=O)[C@](C)(CC(C)C)NC(=O)[C@@H](NC(=O)[C@H](CO)NC(=O)[C@H](Cc1ccc(O)cc1)NC(=O)[C@H](CC(=O)O)NC(=O)[C@H](CO)NC(=O)[C@@H](NC(=O)[C@H](Cc1ccccc1)NC(=O)[C@@H](NC(=O)CNC(=O)[C@H](CCC(N)=O)NC(=O)C(C)(C)NC(=O)[C@@H](N)Cc1ccc(O)cc1)[C@@H](C)O)[C@@H](C)O)[C@@H](C)CC)C(=O)N[C@@H](CCC(=O)O)C(=O)N[C@@H](Cc1ccc(O)cc1)C(=O)N[C@@H](CC(C)C)C(=O)N[C@@H](CC(C)C)C(=O)N[C@@H](CCC(=O)O)C(=O)NC(C)(C)C(=O)NCC(=O)N1CCC[C@H]1C(=O)N[C@@H](CO)C(=O)N[C@@H](CO)C(=O)NCC(=O)N[C@@H](C)C(=O)N1CCC[C@H]1C(=O)N1CCC[C@H]1C(=O)N1CCC[C@H]1C(=O)N[C@@H](CO)C(N)=O
Take B2: the results for the cAMP EC50 (0.1% casein) in assay [1], in assay [2] and in assay [3] were 0.0757 nM, 0.147 nM and 0.0226 nM, respectively. In addition, the values for the cAMP EC50 (FBS and BSA present) in assay [1], in assay [2] and in assay [3] were 4.86 nM, 22.3 nM and 1.47 nM, respectively. Moreover, the results for the Ki in assay [4], in assay [5] and in assay [6] were 0.179 nM, 36.7 nM and 0.422 nM, respectively.

B3: Example 19 (peptide)
peptide: Y[Aib]QGTFTSDYSILLDKK([AEEA-γGlu-γGlu-C20 diacid])AQ[Aib]AFIEYLLE[Aib]GPSSGAPPPS-NH2
modifications: N-terminus assumed
SMILES: CC[C@H](C)[C@H](NC(=O)[C@H](Cc1ccccc1)NC(=O)[C@H](C)NC(=O)C(C)(C)NC(=O)[C@H](CCC(N)=O)NC(=O)[C@H](C)NC(=O)[C@H](CCCCNC(=O)COCCOCCNC(=O)CC[C@H](NC(=O)CC[C@H](NC(=O)CCCCCCCCCCCCCCCCCCC(=O)O)C(=O)O)C(=O)O)NC(=O)[C@H](CCCCN)NC(=O)[C@H](CC(=O)O)NC(=O)[C@H](CC(C)C)NC(=O)[C@H](CC(C)C)NC(=O)[C@@H](NC(=O)[C@H](CO)NC(=O)[C@H](Cc1ccc(O)cc1)NC(=O)[C@H](CC(=O)O)NC(=O)[C@H](CO)NC(=O)[C@@H](NC(=O)[C@H](Cc1ccccc1)NC(=O)[C@@H](NC(=O)CNC(=O)[C@H](CCC(N)=O)NC(=O)C(C)(C)NC(=O)[C@@H](N)Cc1ccc(O)cc1)[C@@H](C)O)[C@@H](C)O)[C@@H](C)CC)C(=O)N[C@@H](CCC(=O)O)C(=O)N[C@@H](Cc1ccc(O)cc1)C(=O)N[C@@H](CC(C)C)C(=O)N[C@@H](CC(C)C)C(=O)N[C@@H](CCC(=O)O)C(=O)NC(C)(C)C(=O)NCC(=O)N1CCC[C@H]1C(=O)N[C@@H](CO)C(=O)N[C@@H](CO)C(=O)NCC(=O)N[C@@H](C)C(=O)N1CCC[C@H]1C(=O)N1CCC[C@H]1C(=O)N1CCC[C@H]1C(=O)N[C@@H](CO)C(N)=O
On to B3, for which the cAMP EC50 (0.1% casein) turned out to be 0.0455 nM in assay [1], 0.143 nM in assay [2] and 0.0874 nM in assay [3]. The results for the cAMP EC50 (FBS and BSA present) in assay [1], in assay [2] and in assay [3] were 3.13 nM, 24.4 nM and 8.45 nM, respectively. Also, the Ki in assay [4] came to 0.0789 nM; in assay [5], 12 nM; in assay [6], 5.2 nM.

B4: Example 4 (peptide)
peptide: Y[Aib]QGTFTSDYSILLDKK([AEEA-γGlu-C20 diacid])AQ[Aib]AFIEYLLA[Aib]GPSSGAPPPS-NH2
modifications: N-terminus assumed
SMILES: CC[C@H](C)[C@H](NC(=O)[C@H](Cc1ccccc1)NC(=O)[C@H](C)NC(=O)C(C)(C)NC(=O)[C@H](CCC(N)=O)NC(=O)[C@H](C)NC(=O)[C@H](CCCCNC(=O)COCCOCCNC(=O)CC[C@H](NC(=O)CCCCCCCCCCCCCCCCCCC(=O)O)C(=O)O)NC(=O)[C@H](CCCCN)NC(=O)[C@H](CC(=O)O)NC(=O)[C@H](CC(C)C)NC(=O)[C@H](CC(C)C)NC(=O)[C@@H](NC(=O)[C@H](CO)NC(=O)[C@H](Cc1ccc(O)cc1)NC(=O)[C@H](CC(=O)O)NC(=O)[C@H](CO)NC(=O)[C@@H](NC(=O)[C@H](Cc1ccccc1)NC(=O)[C@@H](NC(=O)CNC(=O)[C@H](CCC(N)=O)NC(=O)C(C)(C)NC(=O)[C@@H](N)Cc1ccc(O)cc1)[C@@H](C)O)[C@@H](C)O)[C@@H](C)CC)C(=O)N[C@@H](CCC(=O)O)C(=O)N[C@@H](Cc1ccc(O)cc1)C(=O)N[C@@H](CC(C)C)C(=O)N[C@@H](CC(C)C)C(=O)N[C@@H](C)C(=O)NC(C)(C)C(=O)NCC(=O)N1CCC[C@H]1C(=O)N[C@@H](CO)C(=O)N[C@@H](CO)C(=O)NCC(=O)N[C@@H](C)C(=O)N1CCC[C@H]1C(=O)N1CCC[C@H]1C(=O)N1CCC[C@H]1C(=O)N[C@@H](CO)C(N)=O
For B4, the cAMP EC50 (0.1% casein) in assay [1] is 0.0648 nM; in assay [2] it was 0.18 nM; in assay [3], 0.0674 nM. Also, the cAMP EC50 (FBS and BSA present) is 1.55 nM in assay [1], 10.4 nM in assay [2] and 2.49 nM in assay [3]. Moreover, the Ki was found to be 0.0374 nM in assay [4], 3.54 nM in assay [5] and 2.55 nM in assay [6].
Take Y[Aib]QGTFTSDYSI[αMeL]LDKK([AEEA-AEEA-γGlu-C20 diacid])AQHAFIEYLLEGGPSSGAPPPS-NH2 [Example 7]: the cAMP EC50 (0.1% casein) is 0.0798 nM in assay [1], 0.109 nM in assay [2] and 0.18 nM in assay [3]. The cAMP EC50 (FBS and BSA present) was found to be 4.38 nM in assay [1], 15.5 nM in assay [2] and 14.2 nM in assay [3]. Besides, the Ki is 0.11 nM in assay [4], 21.4 nM in assay [5] and 16.3 nM in assay [6].

The record behind these values is patent US20250313605A1.
